Measured values as given in the nanobody polyreactivity screen of Harvey et al. (2022).

Test: yeast display, Sf9 membrane polyspecificity reagent, FACS + sequencing; frameworks hold sequencing errors
How it was run: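 Galactose-induced (36–48 hours) yeast carrying a synthetic nanobody display library were exposed to 10% biotinylated, detergent-solubilized Sf9 membrane reagent at 4 °C for 1 hour. FACS followed streptavidin microbead enrichment, using low and high (top ~1%) gates for expression (anti-HA) and reagent binding (streptavidin). Colony PCR, MiSeq 2 × 250 sequencing and CDR-length filtering followed. Labels for polyreactivity reflect the gate of origin.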

| Sequence | polyreactivity (PSR sort gate) |
| --- | --- |
| QVQLGESGGGLVQAGGSLRLSCAASGSIFWLYAMGWYRQAPGKERELVAAIDSGDSRKYADSVKGRFTISRDNAKNTVYLQMNSLTPEDTAVYYCNASRRYHVRAPYDYWGQGTLVTVSS | low polyreactivity |
| QVQLGESGGGLVQAGGSLRLSCAASGSILRTYTMGWYRPAPGKERELVAAISSSGGRTYYADSVKGRFTISRDNAKNTVYLQMNSLKPEDTAVYYCNAGGYRYRSYDYWGQGTQVTVSS | high polyreactivity |
| QVQLGESGGGLVQAGGSLRLSCAASGSSFWVNAMGWYRQAPGKETELVAAISRGSTYYADSVKGRFTISRDNAKNTVYLQRNSLKPEDTAVYYCNARYLYSHSRYARYHSWGQGTQVTVSS | high polyreactivity |
| QVQLGESGGGLVQAGGSLRLSCAASGSTFARYAMGWYRQAPGKERELVAVIRSGGSRNYADSVKGRFTISRDNAKNTVYLQMNSLKPEDTAGAADQWTIHRWATYGYWGQGTQVTVSS | low polyreactivity |
| QVQLGESGGGLVQAGGSLRLSCAASGSTFKLYAMGWYRQAPGKERELVAAIRGSGGRTYYADSVKGRFTISRDNAKNTVYLQMNSLKPEDTAVYYCAAAYIGVWKYDSWGQGTQVTVSS | high polyreactivity |
| QVQLGESGGGLVQAGGSLRLSCAASGSTFTSYAMGGSRQAPGKERELVAAITHRGSTNYADSVKGRFTISRDNAKYTVDLQMNSLKPEDTAVYYCNARYATSVLYDYWRQGTQVTVSS | high polyreactivity |
| QVQLGESGGGLVQAGGSLRLSCAASGSTFVDNTMGWYRQAPGKERELVAAITRSGGSTYYADSVKGRFTISRDNAKNTVYLQMNSLNPEDTAVYYCATYPYSPYFYVYVEPYVYWGQGTQVTVSS | low polyreactivity |
| QVQLGESGGGLVQAGGSLRLSCAASGSTFYRYAMGWYRQAPGKERELVAAITRGGGNTYYADSVKGRFTISRDNAKNTVYLQMNSLKPEDTAVYYCNTDPTLRSRVGIWGFDYWGQGTQVTVSS | high polyreactivity |
| QVQLGESGGGLVQAGGSLRLSCAASGYIFRVYAMGWYIQARGKERDFVAAITRGGRTNYADSVKGRFTISRDNAKNTVYLQMNSLKQEDTAVYYCAASFSAIRGGVRVTIDYYWGQGTQVTVSS | high polyreactivity |
| QVQLGESGGGLVQAGGSLRLSCDASGTSNPYNAMGWYRQAPGKERELVATISTNDGSTYYADSVKGRFTISRDNEKNTVYLQMNSLKPDDTAVYYCASRGFARYWGQRTQVTVSS | low polyreactivity |
| QVQLGESGGGLVQAGGTLRLSCAAYGFIFGIYDMGSYRQAPGKERELVAAITWDGDTTYYADSVKGRFTISRDNAKNTVYLQMNSLKPEDTAVFYCAVDDSRAYPRPYHWVEYYYWGQGTQVTVSS | low polyreactivity |
| QVQLGESWACIVQAGGSLRLSCAASGIISYLYAMGLYRHAPGKERELVAVIRTSDAITYYADSVKGRFTISRDTAKNTVYLQMNSLKPEDTAFYYCGGRPRYYLYGYDYWGQGTQVTVSS | high polyreactivity |
| QVQLGHSGGGLVQAGGSLRLTCAPSGSIFGYKAMGWYRQAPGKERELVAAISSTGGSTYYADSVKGRFTISRDNAKNTVYLQMNSLKPEDTAVYYCAKQVADRYVYWGQGTQVTVSS | low polyreactivity |
| QVQLHERGDGLVQAVGSLRLSCAASGYISGYYYMGWYRQATGKERELVAGIDALGSSTNYADCVKGRFTISRDNAKNTVYLQMNSLKPEDTAVYYCAARPDGDRLFSYWGQGTQVTVSS | low polyreactivity |
| QVQLHESGGGLVQAGGSLRLRCAASGTISYAGPMGWYRQAPGKEREFGAGIGVGSNTNYADSVKGRYTIIRDNAKNTVFLQMNSLKPEDTAVYYCAVGGYAPLGRPYWGQGTQVTVSS | low polyreactivity |
| QVQLHESGGGLVQAGGSLRLSCAASGTISQEDWMGWYRKAPRKEREFVAAIGLGSNTNYADSLKGRFTISRDNANNTVYLQMNSLKPEDTAVYYCAVSVWQYSDHVYRGQGTQVTVSS | low polyreactivity |
| QVQLHESGGGLVQAGGSLRLSCAASGTISYAGPMGWYRQAPGKEREFVAGIGVGSNTNYADSVKGRYTIIRDNAKNTVYLQMTSLKPEETAVYYCAVGGYAPLGPPYWGQGTQVTVSS | low polyreactivity |
| QVQLHESGGGLVQAGGSMRLSCEASGTISYAGTMGWYRQAPGKEREFVAGIGLGSNTNYADSVKGRYTIIRDNEKKSVYLQMNSLKPEDTSLYYFAVGVYDPLGRPYWCQGTQVTVSS | low polyreactivity |
| QVQLHESGRGLVQAGGSLRLSCAATATISYAGPMGWYRQAPGKEREFVAGIGVGSNTNYADSVKGRYTIIRDNAKNTVYLQMNSLKPEDTAVYSCAVGGYAPLGRPYWGQGTQVTVSS | low polyreactivity |
| QVQLIESGGGLVQAGGSLRLSCAASGRTFKRYAMGWYRQAPGKERELVARITYSGARTYYADSVKGRFTISRDNAKNTVYLQMNSLKPEDTAVYYCAAQQYWTSQYFRSATFDYWGQGTQVTVSS | high polyreactivity |
| QVQLIESGGGLVQAGGSLRLSCAASGSIFAANAMGWYRQAPGKEREFVASISYTGASTYADSVKGRFTISRDNAKNTVYFQMNSLKPEDTAVYYCAKDGYWTGLDPYYYWGQGTQVTVSS | low polyreactivity |

| Sequence | polyreactivity (PSR sort gate) |
| --- | --- |
| QVQLIESGGGLVQAGGSLRLSCAASGSIFYNNTMGWYRQAPGKERELVATIRTSGGSTYADSVKGRYTISRDNAKNTLYLQMNSLKPEDTAVYYCAVRRYRSSSYYYWGQGTQVTVSS | high polyreactivity |
| QVQLIESGGGLVQAGGSLRLSCAASGSTFYGNAMGWYRQAPGKEREFVAAITGSGDSTDYADSVKGRFTISRDNAKNTVYLQMNSLIPEDTAVYYCNAVGYTPSKPSKFDYWGQGTQVTVSS | low polyreactivity |
| QVQLKESGVGLVQAGGSLRLSCAASGTIYWLWSMGWYCQAPGKERELVASISSGGTTYHADSVKGRFTISRDNAKNTVYLQMNSLNPEDTAVYYSAAFYVATAKLGYWGQGSQVTVSS | low polyreactivity |
| QVQLLDSGGGLVKAGGILRLSCAASGRTFGRYAMGCYRQSPGKERELVATISSRGGNAYYAESVKGRFTISRDNAKNTVYFQMNSLKPEYTGVYYCEAQTYKCYDWRQGTQVTVSS | high polyreactivity |
| QVQLLESCGGLDQAGGSLRLSCAASGSTFGTNAMGWYRKAPGKERELVAAITSSGGSTNYADSVKWRFTISLDNANNSVYFQMNCLKPEDTAVYYCNDVSYSTTYGGDSWGQGTQVTVSS | low polyreactivity |
| QVQLLESCGGLVQAGGSLRLSCAASGGTFQRYAMGWYRQAPGKERELVAAISSGGRTYYADSVKGRFTISRDNAKNTVYLEMNSLKAEDNAVYYCNAVGWTQRGRMFEYWGQGTQVTVSS | high polyreactivity |
| QVQLLESGAGLVQAGGSLRLSCAASGYIFYTYAMGWYRQAPGKERELVAAISSNGGSTYYADSVKGRFTISRDHAKNTVYLQMNSLKPEDTAVYYCAARGPYTRYRLSMDYWGQGTQVTVSS | high polyreactivity |
| QVQLLESGGGFVQAGGSLRLSCAASGQTFHGNTMGWYRQAPGKERELVAAISFDGGNTYADSVKGRFTKSRDNAKTSVYLHMNSLKPEDSAVYYDYWGPGTQVTVSS | low polyreactivity |
| QVQLLESGGGIVQAGGSLRLSCAASGRTFSRYVMGWYRQAPGKERELVATISRSGGSTFYADSVKGRFTISRDNAKNTVYLQMNSLKPEDTAVYYCNKKVQGYQVTYGYWGQGTQVTVSS | high polyreactivity |
| QVQLLESGGGLDQARGSLRLSCAASGRTFYGYGMGWSRQAPGKEREFVAAISYSGGSTYYADSVKGRFTISRDNAKNTVYLQMNSLKPEDTAVYYSAARNRGSCYYYWGQGTQVTVSS | high polyreactivity |
| QVQLLESGGGLVQAGASLRLSCAASGSTFSYYAMGWYRQAPGKERELDAAISWRGSSTYYADSVKRRITISRDNANNTVYLQMNSLTPEATAVYYCAAGYPGRVSGYLYGTRATYYYWGQGTQVTVSS | high polyreactivity |
| QVQLLESGGGLVQAGGILRLRCAASGIIVRGYVMGWYRQAPGKESELVAAISTSGGRTSYADSVKGRFTISRDNAKNTVYLQMNSLKPEDTAVYYCAARPLYSYSQSGYGYWGQGTQVTVSS | high polyreactivity |
| QVQLLESGGGLVQAGGSDRLSCAASGSIFSFNAMGWYRQAPGKERELVAAISRGGSTYYADSVKGRFTISRDNAKNTVYLQLNSLKPEDTAVYYCAADIYGHSYSYYLGEYWGQGTQVTVSS | high polyreactivity |
| QVQLLESGGGLVQAGGSIRLSFADSAFIFTSYSIGRYRQAPGKEREFVAAISWTGGTYYADSVKGRFTISRDNAKNTVYFLINSLKPEDTAVYYCAVRYKRKGSGYRYYLYVYWGQGTQVTVSS | high polyreactivity |
| QVQLLESGGGLVQAGGSLRISCAASGSTLRTNAMGWYRQAPGKERELVAAISTRGSSTYYADSVKGRFTISRDNSKNTVYLQMNSLKPEDTAVYYCAKDGVWYYSGTGMDYWGQGTQVTVSS | low polyreactivity |
| QVQLLESGGGLVQAGGSLRLCCASSGYIFWGANMGWYRQAPGKEREFVAAIGHGTVTCYADSVKGRFTISRDNAKNTVYLQMNSLKPEDTAVYNCAAYSDVRKPHRYWGQGTQVTVVS | high polyreactivity |
| QVQLLESGGGLVQAGGSLRLICAASGSTFVVYAMGWYRQAPGKERELVAAIRSGGGTYYADSVKGRFTISRDNAKNTVYLQMNSQKPEDTAVYYCNADSDPGPAYVYRDLYDYWGQGTQVTLSS | low polyreactivity |
| QVQLLESGGGLVQAGGSLRLSCAASGFIFYHYAMGWYIQAPGKERELVAANSRSGTSTYYADSVKGRFTISRDNAKNTVYLQMNSLKPEDTAVYYCNAVYTRYVYYYYEYDYWGQGTQVTVSS | high polyreactivity |
| QVQLLESGGGLVQAGGSLRLSCAASGFTFAWYAMGWYRQAPGKERELVAAISSRGSRTRYADSVKGRFTISRDNAKNTVYLQLNSLKPEDTAFYYCAKGSGARVVQVDRSGDYWGQGTQVTVSS | high polyreactivity |
| QVQLLESGGGLVQAGGSLRLSCAASGFTFGRYAMGWYRQAPGKERELVAAINTSGDRTFYADSVKGRFTISRDNAKNTVYLQMNSLKPVDTAVYYCAADVQSWVYPGSLYYWTYDFWGQGTQVTVSS | high polyreactivity |
